According to patent US11213565B2, “Protein P8 derived from lactic acid bacteria and its use as anti-cancer agent” (CELL BIOTECH CO., LTD., priority 2016, dated 2022):

Legend:
[1] = test system: colorectal cancer cell line DLD-1; test: Cell survival rate (WST-8) in DLD-1; assay type: cell-based, human; details: 0.39 μl/ml to 100 μl/ml, 24 hours
Procedure: Colorectal cancer DLD-1 cells were cultured in a 96-well plate at a density of 1×10^4 cells/well, and each of active sites 1 to 3 (SEQ ID NOs: 8 to 10) of Example 1-3 was added thereto at a concentration of 10 μg/ml. As a negative control, 0.1% PBS buffer used in protein purification was used. The cells were incubated for 24 hours, and then each well was treated with 100 of a cell survival rate measurement kit (Dojindo Cell count kit WST-8) and incubated for 2 hours. The absorbance of each well at 450 nm was measured using a microplate reader (Amersham, Biorad, USA, Japan), and based on the measured values, cell survival rates were calculated.
(§1) Each of the colorectal cancer cell line DLD-1 and the HT-29 cell line was cultured in a 96-well plate at a density of 1×10^4 cells/well, and the P8 protein of Example 1 was added thereto at a concentration of 0.39 μl/ml to 100 μl/ml. As a negative control, 0.1% PBS buffer used in protein purification was used. The cells were incubated for 24 hours, and then each well was treated with 100 of a cell survival rate measurement kit (Dojindo Cell count kit WST-8) and incubated for 2 hours. The absorbance of each well at 450 nm was measured using a microplate reader (Amersham, Biorad, USA, Japan), and based on the measured values, cell survival rates were calculated.

[2] = test system: HT-29 cell line; test: Cell survival rate (WST-8) in HT-29; assay type: cell-based; details: 0.39 μl/ml to 100 μl/ml, 24 hours
Procedure: as §1

[3] = test system: Colorectal cancer DLD-1 cells; test: LIVE/DEAD viability/cytotoxicity staining of DLD-1; assay type: cell-based, human; details: 1 μg/ml or 10 μg/ml, 24 to 48 hours
Procedure: (§2) Colorectal cancer DLD-1 cells were cultured in a 6-well plate at a density of 1.5×10^6 cells/well, and a P8 protein of the present invention was added thereto at a concentration of 1 μg/ml or 10 μg/ml. Next, the cells were incubated for 24 to 48 hours, and then washed twice with phosphate buffered saline and treated with 1 ml of a LIVE/DEAD viability/cytotoxicity staining kit, followed by incubation for 20 to 40 minutes. By the staining, living cells were stained green, and dead cells were stained red. The cells were observed under a fluorescent microscope, and the degree of inhibition of viability thereof was analyzed.
as §2, with “and the” for “and a”, “of Example 1” for “of the present invention”, “μg/ml. Each well was” for “μg/ml. Next, the cells were”, “staining, live” for “staining, living”

[4] = test system: NIH3T3 cells (mouse embryonic fibroblast cells); test: Cytotoxicity assay (WST-8) in NIH3T3; assay type: cell-based; details: 0.39 μg/ml to 100 μg/ml, 24 hours
Procedure: In order to examine whether the P8 protein of Example 1 is cytotoxic, a cytotoxicity assay was performed using the P8 protein, highly expressed in NIH3T3 cells (mouse embryonic fibroblast cells), and BSA (bovine serum albumin) as a […] control.
First, NIH3T3 cells were cultured in a 96-well plate at a density of 1×10^4 cells/well, and each of BSA and the highly expressed and purified P8 protein was added thereto at a concentration of 0.39 μg/ml to 100 μg/ml. Each well was incubated for 24 hours, and then treated with 100 of a cell survival rate measurement kit (Dojindo Cell count kit WST-8), followed by incubation for 2 hours. The absorbance of each well at 450 nm was measured using a microplate reader (Amersham, Biorad, USA, Japan), and based on the measured values, cell survival rates were calculated.

[5] = test system: Colorectal cancer DLD-1 cells; test: Scratch assay, migration of colorectal cancer cells; assay type: cell-based, human; details: 1 μg/ml daily
Procedure: Colorectal cancer DLD-1 cells were treated daily with 1 μg/ml of the P8 protein of Example 1 for 1, 3 or 7 days, and then dispensed into each well of a 6-well plate.
The dispensed DLD-1 cells were cultured overnight, and then the plate having the cells cultured thereon was scratched with a 200 μl tip. To remove suspended material resulting from the scratch, the plate was washed twice with PBS, and then additionally incubated for 24 hours.

[6] = test system: human colorectal cancer cell line (DLD-1) xenograft; test: Colorectal cancer xenograft model, tumor volume; assay type: in vivo, nude mice
Procedure: The human colorectal cancer cell line (DLD-1) was transplanted subcutaneously into nude mice, thereby constructing xenograft models. Using the xenograft models, the anticancer activity of the P8 protein of Example 1 was evaluated.
First, for construction of colorectal cancer xenograft models, DLD-1 cells were transplanted subcutaneously into nude mice at a concentration of 1×10^7 cells/100 μl. 10 to 15 Days after the transplantation, the transplanted state of the tumor cells was checked, and mice showing a stable transplanted state were continuously observed. Before tumor's central necrosis occurred, mice showing rapid tumor growth due to supply of sufficient blood were selected, and tumor tissues were collected therefrom. Of the collected tumor tissue, the outer portion in which rapid cell division mainly occurred was cut into a predetermined size (3×3×3 mm), thereby constructing a tumor fragment. Then, the tumor fragment was placed on the tip of a puncture needle (Trocar), and the anterior side of the left rear leg of each animal was incised about 4 mm. The prepared puncture needle was inserted through the incision such that the tip reached the interbody side on the rear side of the left front leg. […] The position of the tumor fragment was determined by touching the skin with hand. […]
During drug administration, the tumor size was measured using Vernier calipers once every two days. […]

B1: P8 protein: 8 KDa protein fragment extracted from Lactobacillus rhamnosus, amino acid sequence SEQ ID NO: 2 (protein, listed as Lactobacillus rhamnosus)
chain: MATVDPEKTLFLDEPMNKVFDWSNSEAPVRDALWDYYMEKNSRDTIKTEEEMKPVLDMSDDEVKALAEKVLKK
cell growth inhibitory effect [1]: about 20% | cell growth inhibitory effect [2]: about 20% | dependence of viability on concentration or time of treatment [3]: decreased as the concentration or time of treatment with the P8 protein increased | viability of the cells compared to negative control ([3]; fluorescent microscope): decreased | cytotoxicity (cell survival rate compared with BSA) [4]: not cytotoxic | decrease of migration rate of the cells compared to untreated control ([5]; 1-day treatment): 15.7% | decrease of migration rate of the cells compared to untreated control ([5]; 3-day treatment): 45.9% | decrease of migration rate of the cells compared to untreated control ([5]; 7-day treatment): 58.3% | cancer growth inhibitory effects compared to conventional anticancer agents ([6]; 10 mg/Kg or higher, intraperitoneally twice a week for 4 weeks, vs 5-fluorouracil 10 mg/Kg, oxaliplatin 4 mg/Kg): superior | cancer growth compared to negative control group ([6]; 1, 5 and 10 mg/Kg intraperitoneally twice a week for 4 weeks): significantly inhibited
